What is called Kd is the free concentration of one partner at which half of the binding sites on the other are occupied at equilibrium, for simple one-to-one binding. One may read the koff as the first-order rate constant of dissociation. One may read the kon as the rate constant with which the complex forms.

The target of assay [1] is T1, prostate specific membrane antigen (PSMA), full-length human (human, UniProt Q04609 1-750).
T1 construct: also called cell-surface PSMA; full-length PSMA
The assay can be described thus: FACS, 3T3-PSMA cells. The protocol: Control anti-human IgG (Caltag, Burlingame, Calif.) was used to establish background binding. After two washes in PBS, the cells were incubated with anti-human IgG (BD Pharmingen, San Diego, Calif.) for 30 minutes on ice. Cells were washed twice in PBS, resuspended in 250 μl PBS and analyzed by flow cytometry using a FACScan machine (Becton Dickinson, Franklin Lakes, N.J.) and CellQuest software. Viable cells were gated by forward scatter and side scatter parameters, and binding was quantified using histogram plots of mean fluorescence intensity (MFI) levels.

Assay [2] addresses T2, recombinant soluble PSMA (rsPSMA) (human, UniProt Q04609 44-750).
T2 construct: also called rsPSMA dimer; secreted rsPSMA
The assay can be described thus: Biacore, rsPSMA. The protocol: (§1) The streptavidin-coated sensor chips (SA chips, Biacore) were used to capture biotinylated anti-human IgG antibody (Sigma, St. Louis, Mo.). The entire sensor chip surface was conditioned with five injections of conditioning solution (1 M NaCl, 50 mM NaOH) and equilibrated with PBS buffer containing 0.005% polysorbate 20. Two to three thousand resonance units (RU) of biotinylated anti-human IgG antibody (Sigma) were immobilized onto the SA chip followed by an injection of regeneration buffer (glycine-HCl, pH 2.2). […] For each antibody at one concentration, the chip was regenerated and equilibrated. […] Thermodynamic and kinetic rate constants of binding were calculated using the Biacore Evaluation software.

For assay [3], the target named is T1, prostate specific membrane antigen …. The assay can be described thus: cell-based or functional assay.
Assay [4] has as its target T2, recombinant soluble PSMA (rsPSMA). The assay can be described thus: cell-based or functional assay.
Assay [5] addresses T1, prostate specific membrane antigen …. The assay can be described thus: FACS, C4-2 cells. (Flow cytometry measures light scatter and fluorescence of single cells or particles in a stream.)
For assay [6] the target is unchanged. The assay can be described thus: lysate EIA, supernatant.
Assay [7] shares this target. The assay can be described thus: FACS, supernatant.
Assay [8] has as its target T2, recombinant soluble PSMA (rsPSMA). The assay can be described thus: Biacore; Avg KD of purified 10.3. As to the method:
(§2) To determine the kinetics and affinity of the antibodies, the antibodies in crude supernatants, in purified form and in bifunctional chelate modified forms were analyzed using a Biacore 3000 instrument (Biacore Inc., Piscataway, N.J.). Biacore 3000 is a fully automated surface plasmon resonance (SPR)-based biosensor system that is designed to provide real-time kinetic data from assay formats that require no tags or labeling of compounds for biomolecular interactions. It is ideal for screening crude supernatants.
as §1
For orientation: In SPR one partner is held on a chip, and binding of the other changes the refractive index at the surface.

For assay [9] the target is unchanged. The assay can be described thus: Biacore; Avg KD. As to the method:
as §2, §1

The target is the same in assay [10]. The assay can be described thus: Biacore, captured mAb, rsPSMA in flow. The protocol:
as §2, §1

For assay [11] the target is unchanged. The assay can be described thus: Biacore; Avg KD of purified 006. The protocol: as §2, §1

Several values for one entry are separate records, joined by “and”; a condition that tells them apart may be missing. Equal values may be shown once.

T1 sequence (Q04609 whole entry): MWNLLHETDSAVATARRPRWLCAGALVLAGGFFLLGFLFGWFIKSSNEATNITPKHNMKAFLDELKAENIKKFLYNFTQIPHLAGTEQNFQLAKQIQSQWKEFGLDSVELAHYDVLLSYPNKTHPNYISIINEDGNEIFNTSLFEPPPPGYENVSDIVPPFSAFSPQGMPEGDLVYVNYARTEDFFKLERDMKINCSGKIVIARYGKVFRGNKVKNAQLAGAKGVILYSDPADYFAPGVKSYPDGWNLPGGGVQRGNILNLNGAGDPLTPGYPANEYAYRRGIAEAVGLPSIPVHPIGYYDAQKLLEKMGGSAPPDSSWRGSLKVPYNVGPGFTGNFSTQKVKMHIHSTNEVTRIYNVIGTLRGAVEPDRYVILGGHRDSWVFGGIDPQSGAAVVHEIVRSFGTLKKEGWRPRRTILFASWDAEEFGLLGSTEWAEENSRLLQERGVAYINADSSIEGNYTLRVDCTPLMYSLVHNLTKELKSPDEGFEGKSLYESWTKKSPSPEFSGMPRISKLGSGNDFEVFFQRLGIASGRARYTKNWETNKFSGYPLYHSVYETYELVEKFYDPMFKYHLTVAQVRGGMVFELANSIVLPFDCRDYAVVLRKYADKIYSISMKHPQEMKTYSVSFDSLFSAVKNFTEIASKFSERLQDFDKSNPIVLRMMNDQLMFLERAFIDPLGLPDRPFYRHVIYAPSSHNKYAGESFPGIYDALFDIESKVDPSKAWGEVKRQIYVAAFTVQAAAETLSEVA
T2 sequence (Q04609 44-750): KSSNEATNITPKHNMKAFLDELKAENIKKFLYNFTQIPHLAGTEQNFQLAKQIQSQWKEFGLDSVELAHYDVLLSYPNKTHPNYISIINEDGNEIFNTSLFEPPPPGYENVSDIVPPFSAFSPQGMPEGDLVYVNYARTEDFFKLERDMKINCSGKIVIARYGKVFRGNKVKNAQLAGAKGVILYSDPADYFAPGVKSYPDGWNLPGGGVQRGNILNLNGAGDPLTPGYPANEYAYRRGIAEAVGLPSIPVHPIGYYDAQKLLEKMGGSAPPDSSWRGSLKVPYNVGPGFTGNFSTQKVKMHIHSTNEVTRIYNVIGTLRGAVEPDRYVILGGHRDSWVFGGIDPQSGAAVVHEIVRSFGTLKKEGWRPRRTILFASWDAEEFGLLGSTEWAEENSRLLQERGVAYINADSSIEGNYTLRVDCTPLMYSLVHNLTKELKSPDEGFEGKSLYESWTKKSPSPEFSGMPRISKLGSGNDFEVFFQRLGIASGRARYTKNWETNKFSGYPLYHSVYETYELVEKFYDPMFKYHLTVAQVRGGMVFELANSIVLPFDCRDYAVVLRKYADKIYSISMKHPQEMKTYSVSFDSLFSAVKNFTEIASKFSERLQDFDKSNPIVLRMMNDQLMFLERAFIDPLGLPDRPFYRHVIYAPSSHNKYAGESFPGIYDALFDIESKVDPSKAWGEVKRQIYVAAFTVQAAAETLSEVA

B1: AB-PG1-XG1-069 (antibody, V domains shown)
VH: EVQLVQSGAEVKKPGESLKISCKGSGYSFTSYWIGWVRQMPGKGLEWMGIIYPGDSDTRYSPSFQGQVTISADKSISTAYLQWSSLKASDTAMYYCARRMAAAGPFDYWGQGTLVTVSS
VL: GIVMTQSPATLSVSPGERATLSCRTSQSIGWNLAWYQQKPGQAPRLLIYGASSRTTGIPARFSGSGSGTEFTLTISSLQSEDSAVYYCQHYDNWPMCSFGQGTELEIK
notes: also called PRGX1-XG1-069
As for B1, in assay [1], the “AVG Max binding” value was 71. In addition, the binding result in assay [2] is “no binding”.

B2: ^225Ac labeled mAb 026 (antibody, V domains shown)
VH: QVQLVESGGGVVQPGRSLRLSCAASGFTFSNYVMHWVRQAPGKGLEWVAIIWYDGSNKYYADSVKGRFTISRDNSKNTLYLQMNSLRAEDTAVYYCAGGYNWNYEYHYYGMDVWGQGTTVTVSS
VL: DIQMTQSPSSLSASVGDRVTITCRASQGITNYLAWFQQKPGKAPKSLIYAASSLQSGVPSKFSGSGSGTDFSLTISSLQPEDFATYYCQQYNSYPITFGQGTRLEIK
As to B2, in [3], the “IC50, ^3H thymidine incorporation, C4-2 cells” value was 0.12 nCi/mL; the “IC50, cytotoxicity on C4-2 and LNCaP cells” value is under 1 nCi/mL; the “selectivity of killing vs. control antibody (HuIgG)” value is over 50 fold; the “selectivity of killing vs. control mAb (HuM195)” value was over 100 fold. Also, the “selectivity of killing, C4-2 vs. PC3” value in assay [3] was over 50 fold.

B3: AB-PG1-XG1-026 (antibody, V domains shown)
VH: QVQLVESGGGVVQPGRSLRLSCAASGFTFSNYVMHWVRQAPGKGLEWVAIIWYDGSNKYYADSVKGRFTISRDNSKNTLYLQMNSLRAEDTAVYYCAGGYNWNYEYHYYGMDVWGQGTTVTVSS
VL: DIQMTQSPSSLSASVGDRVTITCRASQGITNYLAWFQQKPGKAPKSLIYAASSLQSGVPSKFSGSGSGTDFSLTISSLQPEDFATYYCQQYNSYPITFGQGTRLEIK
notes: also called XG-026; PRGX1-XG1-026
For the molecule B3, the “AVG Max binding” value in assay [1] was 148. In assay [4], the “IC50, folate hydrolase activity” value came to 1.39 µg/mL. In [2], the Kd stood at 0.2 nM, the koff amounted to 2.9e-05 s⁻¹ and the kon worked out at 150000 M⁻¹ s⁻¹.

B4: AB-PG1-XG1-051 (antibody, V domains shown)
VH: QVQLVESGGGVVQPGRSLRLSCAASGFTFSSYGMHWVRQAPGKGLDWVAIIWHDGSNKYYADSVKGRFTISRDNSKKTLYLQMNSLRAEDTAVYYCARAWAYDYGDYEYYFGMDVWGQGTTVTVSS
VL: DIQMTQSPSSLSASVGDRVTITCRASQGISHYLAWFQQKPGKAPKSLIYAASSLQSGVPSKFSGSGSGTDFTLTISSLQPEDFATYYCQQYNSFPLTFGGGTKVEIK
notes: also called XG-051; PRGX1-XG1-051
Regarding B4, the “AVG Max binding” value in [1] was 202. Further, the “C4.2 FACS” value in assay [5] was 9.9. For the same molecule, in assay [6], the “Lysate EIA” value is 0.48. For the same molecule, the “PGNX FACS” value in assay [7] worked out at 83. Moreover, in assay [2], the Kd is 0.58 nM, the koff came to 8.2e-05 s⁻¹ and the kon was determined as 140000 M⁻¹ s⁻¹.

B5: AB-PG1-XG1-077 (antibody, V domains shown)
VH: QVQLVESGGGVVQPGRSLRLSCAASGFTFISYGMHWVRQAPGKGLEWVAVISYDGSNKYYADSVKGRFTISRDNSKNTLYLQMNSLRAEDTAVYYCARVLVGALYYYNYYGMDVWGQGTTVTVSS
VL: DIVMTQTPLSLSVTPGQPASISCKSSQSLLHSDGKTFLYWYLQKPGQPPQLLIYEVSNRFSGVPDRFSGSGSGTDFTLKISRVEAEDVGLYYCMQSIQLPLTFGGGTKVEIK
notes: also called PRGX1-XG1-077
Regarding B5, in assay [1], the “AVG Max binding” value came to 227. Also, in [5], the “C4.2 FACS” value was 12.4. In addition, in assay [6], the “Lysate EIA” value stood at 0.45. In addition, the “PGNX FACS” value in [7] was 392. Further, in assay [2], the Kd amounted to 1.6 nM, the koff is 0.000104 s⁻¹ and the kon came out at 60000 M⁻¹ s⁻¹.

B6: PSMA 10.3 (antibody, V domains shown)
VH: QEQLVESGGGVVQPGRSLRLSCAASGFTFSTYGMHWVRQAPGKGLEWVAVTWHDGSNKYYADSVKGRFTISRDNSKNTLYLQMNSLRAEDTAVYYCARGGVGATYYYYYGMDVWGQGTTVTVSS
VL: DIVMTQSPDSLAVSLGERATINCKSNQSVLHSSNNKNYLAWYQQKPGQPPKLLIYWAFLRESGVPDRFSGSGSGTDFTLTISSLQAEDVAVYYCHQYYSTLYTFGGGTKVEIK
Consider B6, for which the Kd was found to be 0.205 nM in [8], 1.91 nM in assay [9] and 1.9 nM in assay [2]. The “AVG Max binding” value in assay [1] was found to be 181. In assay [6], the “Lysate EIA” value came out at 1.06. In addition, in assay [2], the koff was 0.000364 s⁻¹. Further, the kon is 190000 M⁻¹ s⁻¹ in [2]; 190000 M⁻¹ s⁻¹ and 328000 M⁻¹ s⁻¹ and 296000 M⁻¹ s⁻¹ in assay [10].

B7: AB-PG1-XG1-006 (antibody, V domains shown)
VH: QVQLVESGGGVVQPGRSLRLSCAASGFAFSRYGMHWVRQAPGKGLEWVAVIWYDGSNKYYADSVKGRFTISRDNSKNTQYLQMNSLRAEDTAVYYCARGGDFLYYYYYGMDVWGQGTTVTVSS
VL: DIQMTQSPSSLSASVGDRVTITCRASQGISNYLAWYQQKTGKVPKFLIYEASTLQSGVPSRFSGGGSGTDFTLTISSLQPEDVATYYCQNYNSAPFTFGPGTKVDIK
notes: also called XG-006; PRGX1-XG1-006
In the case of B7, the “AVG Max binding” value in [1] came out at 183. The Kd was 0.514 nM in assay [11]; 0.492 nM in [9]; 0.48 nM in [2]; 0.466 nM and 0.562 nM and 0.492 nM in assay [10]. Moreover, in assay [5], the “C4.2 FACS” value is 9.5. The “Lysate EIA” value in assay [6] is 0.39. Further, the “IC50, folate hydrolase activity” value in assay [4] is 9.34 µg/mL. Besides, the “PGNX FACS” value in assay [7] was determined as 114. In addition, the koff was 6.4e-05 s⁻¹ in assay [2]; 0.000137 s⁻¹ and 0.000127 s⁻¹ and 6.4e-05 s⁻¹ in assay [10]. Also, the kon was 130000 M⁻¹ s⁻¹ in assay [2]; 294000 M⁻¹ s⁻¹ and 226000 M⁻¹ s⁻¹ and 130000 M⁻¹ s⁻¹ in assay [10].

Values taken from patent US20080286284A1 (published 2008).
